US20220332804A1 (CSL INNOVATION, published 2022)

Legend:
Assay in all cases: SPR, KD relative to WT C2;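 note: biacore SPR at 37 °C, anti-C2 mAbs captured on anti-human IgG chips with alanine or serine point mutants of C2 as analyte, KD from 1:1 fit compared with wild-type C2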
human C2 N424A = target: T1, human C2 N424A (human, UniProt P06681 21-752)
T1 sequence: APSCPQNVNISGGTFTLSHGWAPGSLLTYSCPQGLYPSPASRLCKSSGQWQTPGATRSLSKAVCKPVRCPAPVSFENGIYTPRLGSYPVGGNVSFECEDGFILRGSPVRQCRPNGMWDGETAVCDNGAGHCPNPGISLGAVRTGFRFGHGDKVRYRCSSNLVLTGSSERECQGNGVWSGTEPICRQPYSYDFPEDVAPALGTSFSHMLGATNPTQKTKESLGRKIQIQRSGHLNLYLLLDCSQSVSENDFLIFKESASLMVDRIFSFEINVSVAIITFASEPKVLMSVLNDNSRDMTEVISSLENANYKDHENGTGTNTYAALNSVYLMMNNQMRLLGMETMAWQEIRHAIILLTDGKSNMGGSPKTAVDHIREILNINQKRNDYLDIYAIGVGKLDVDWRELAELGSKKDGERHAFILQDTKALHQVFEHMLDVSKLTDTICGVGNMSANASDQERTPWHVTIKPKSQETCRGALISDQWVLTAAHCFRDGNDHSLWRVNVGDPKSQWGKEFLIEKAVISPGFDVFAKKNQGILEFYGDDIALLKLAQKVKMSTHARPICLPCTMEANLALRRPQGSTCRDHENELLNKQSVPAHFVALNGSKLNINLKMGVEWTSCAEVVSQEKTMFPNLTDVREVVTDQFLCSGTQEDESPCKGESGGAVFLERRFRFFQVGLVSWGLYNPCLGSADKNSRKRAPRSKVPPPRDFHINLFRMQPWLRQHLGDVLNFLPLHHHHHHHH
Experimental: (§1) Surface plasmon resonance (SPR, Biacore) was used for all binding affinity analyses. In brief, goat anti-human IgG was directly immobilised onto the carboxymethyl dextran surface of CM5 sensorchips to approximately 12,000 RU using standard NHS/EDC chemistry at pH 5. The immobilised antibody surface was pre-conditioned with ten injections of polyclonal human IgG (Privigen 60 s) prepared at 1 μg/mL. Ligands (anti-C2 mAbs) were captured at the beginning of each cycle as described below. An adjacent spot or flow cell in which only Polyclonal IgG was capture was used as a reference surface. The goat anti-human IgG Fc antibody surface was regenerate in 100 mM H3PO4, injected for 45 seconds at the end of each cycle. Experiments were performed at 37° C. and the flow rate of each experiment was kept constant at 30 μL/min.
(§2) Sensogram data was double-referenced against a reference anti-IgG surface (i.e. minus anti-C2 mAb) and blank buffer injections obtained within each experiment. The binding data was fit to 1:1 (kinetic or steady-state) model using local Rmax and null refraction index (RI=0) when appropriate. Buffers and solutions were filtered (0.22 μm) prior to use.

human C2 A326S = target: T2, human C2 A326S (human, UniProt P06681 21-752)
T2 sequence: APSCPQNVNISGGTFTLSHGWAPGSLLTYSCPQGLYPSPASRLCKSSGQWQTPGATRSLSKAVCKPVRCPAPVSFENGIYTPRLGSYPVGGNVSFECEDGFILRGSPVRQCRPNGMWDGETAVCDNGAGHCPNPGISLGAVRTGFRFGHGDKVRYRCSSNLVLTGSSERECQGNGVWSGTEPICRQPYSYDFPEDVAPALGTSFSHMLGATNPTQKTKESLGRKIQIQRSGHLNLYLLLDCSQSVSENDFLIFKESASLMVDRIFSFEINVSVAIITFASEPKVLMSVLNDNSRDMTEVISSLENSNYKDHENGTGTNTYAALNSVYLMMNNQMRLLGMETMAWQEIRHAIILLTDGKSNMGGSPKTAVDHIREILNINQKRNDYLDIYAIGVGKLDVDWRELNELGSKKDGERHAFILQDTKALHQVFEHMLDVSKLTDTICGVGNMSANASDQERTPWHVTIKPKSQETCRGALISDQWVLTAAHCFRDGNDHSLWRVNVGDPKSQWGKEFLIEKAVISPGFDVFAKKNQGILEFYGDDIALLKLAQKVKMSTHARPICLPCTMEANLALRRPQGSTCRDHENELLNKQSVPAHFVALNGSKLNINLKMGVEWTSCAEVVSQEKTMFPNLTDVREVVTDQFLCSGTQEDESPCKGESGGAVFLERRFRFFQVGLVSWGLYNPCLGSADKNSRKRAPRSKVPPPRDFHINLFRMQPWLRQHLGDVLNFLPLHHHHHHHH
Experimental: as §1, §2

human C2 I438A = target: T3, human C2 I438A (human, UniProt P06681 21-752)
T3 sequence: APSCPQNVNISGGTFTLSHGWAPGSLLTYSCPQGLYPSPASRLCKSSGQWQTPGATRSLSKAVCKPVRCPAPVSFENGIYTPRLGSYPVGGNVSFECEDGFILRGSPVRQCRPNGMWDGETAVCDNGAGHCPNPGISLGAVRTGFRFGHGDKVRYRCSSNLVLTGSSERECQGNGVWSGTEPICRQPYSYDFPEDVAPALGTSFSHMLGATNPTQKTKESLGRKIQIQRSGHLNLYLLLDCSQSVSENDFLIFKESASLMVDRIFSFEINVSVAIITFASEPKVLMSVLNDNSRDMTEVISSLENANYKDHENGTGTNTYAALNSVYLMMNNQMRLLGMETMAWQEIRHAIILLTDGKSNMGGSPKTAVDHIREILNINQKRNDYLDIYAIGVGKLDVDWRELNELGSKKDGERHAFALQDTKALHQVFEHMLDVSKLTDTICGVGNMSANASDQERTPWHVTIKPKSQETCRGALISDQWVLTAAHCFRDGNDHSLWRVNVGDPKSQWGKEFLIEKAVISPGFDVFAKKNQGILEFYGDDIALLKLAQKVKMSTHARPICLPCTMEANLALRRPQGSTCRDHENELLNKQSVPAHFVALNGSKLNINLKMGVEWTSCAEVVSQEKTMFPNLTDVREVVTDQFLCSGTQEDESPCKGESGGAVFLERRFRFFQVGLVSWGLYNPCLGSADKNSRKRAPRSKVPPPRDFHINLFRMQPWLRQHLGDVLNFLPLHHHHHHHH
Experimental: as §1, §2

human C2 R519A = target: T4, human C2 R519A (human, UniProt P06681 21-752)
T4 sequence: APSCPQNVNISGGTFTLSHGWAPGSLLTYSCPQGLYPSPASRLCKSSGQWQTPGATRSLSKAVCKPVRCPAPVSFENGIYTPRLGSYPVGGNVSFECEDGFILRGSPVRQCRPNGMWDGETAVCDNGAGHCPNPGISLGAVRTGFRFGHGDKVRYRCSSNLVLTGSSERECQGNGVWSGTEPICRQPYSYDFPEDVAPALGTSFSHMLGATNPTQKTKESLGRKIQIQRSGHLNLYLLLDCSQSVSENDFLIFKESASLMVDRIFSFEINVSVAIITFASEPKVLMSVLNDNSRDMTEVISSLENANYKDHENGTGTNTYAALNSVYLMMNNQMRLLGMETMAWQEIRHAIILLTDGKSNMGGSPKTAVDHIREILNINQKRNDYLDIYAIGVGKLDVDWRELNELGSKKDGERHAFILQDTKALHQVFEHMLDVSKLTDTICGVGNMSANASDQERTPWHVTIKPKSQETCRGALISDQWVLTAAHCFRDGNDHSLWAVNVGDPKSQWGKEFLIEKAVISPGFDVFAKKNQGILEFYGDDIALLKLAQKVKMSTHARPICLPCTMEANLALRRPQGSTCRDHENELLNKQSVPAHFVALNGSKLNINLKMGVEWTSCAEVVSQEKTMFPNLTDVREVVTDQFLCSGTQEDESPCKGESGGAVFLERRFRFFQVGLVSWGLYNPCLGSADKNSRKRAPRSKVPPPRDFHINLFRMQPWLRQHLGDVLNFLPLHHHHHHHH
Experimental: as §1, §2

Measured: Fold diff

B1: RF16-242 (antibody, human IgG4 S228P, lambda, V domains shown)
VH: EVQLLQSGAEVKKPGESLKISCKGSGYSFTSYWIGWVRQMPGKGLEWMGIIYPGDSDTRYSPSFQGQVTISADKSISTAYLQWSSLKASDTAMYYCARRGHYGDYFDYWGQGTLVTVSS
VL: SYELTQPPSVSVSPGQTARITCSGDALPKKYAYWYHQKSGQAPVLVIYEDRRRPSEIPERFSGSSSGTMATLTITGAQVEDEGVYFCYSRDRAGNQRVFGGGTQLTVLG
notes: pH-dependent anti-C2 antibody from a phage display library
1 fold: human C2 N424A | human C2 A326S | human C2 I438A | human C2 R519A
